Results as given in patent publication US20100310509A1 (published 2010).

T1: soluble gp130 (R&D Systems # 228-GP-050/CF) (UniProt P40189 23-619, limits assumed)
T1 construct: extracellular domain; Bought
T1 sequence (looked up): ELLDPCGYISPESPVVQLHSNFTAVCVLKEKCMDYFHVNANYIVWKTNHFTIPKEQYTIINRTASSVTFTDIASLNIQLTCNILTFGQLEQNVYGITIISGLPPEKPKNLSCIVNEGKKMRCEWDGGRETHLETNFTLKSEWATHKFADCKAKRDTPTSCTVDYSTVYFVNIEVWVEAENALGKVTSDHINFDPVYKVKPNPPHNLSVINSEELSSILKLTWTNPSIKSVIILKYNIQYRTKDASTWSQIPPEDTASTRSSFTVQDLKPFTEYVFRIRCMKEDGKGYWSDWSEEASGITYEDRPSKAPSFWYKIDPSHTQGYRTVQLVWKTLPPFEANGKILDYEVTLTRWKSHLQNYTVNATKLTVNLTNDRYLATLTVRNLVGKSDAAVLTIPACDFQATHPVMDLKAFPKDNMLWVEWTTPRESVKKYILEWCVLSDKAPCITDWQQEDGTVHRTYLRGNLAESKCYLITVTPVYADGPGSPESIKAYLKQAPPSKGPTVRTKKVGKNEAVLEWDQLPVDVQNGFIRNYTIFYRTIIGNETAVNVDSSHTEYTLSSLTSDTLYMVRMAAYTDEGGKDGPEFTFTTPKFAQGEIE

B1: OSM-WT ('AGA' modified human Oncostatin M, referred to as wild-type OSM) (ligand)
chain: AAIGSCSKEYRVLLGQLQKQTDLMQDTSRLLDPYIRIQGLDVPKLREHCRERPGAFPSEETLRGLGRRGFLQTLNATLGCVLHRLADLEQRLPKAQDLERSGLNIEDLEKLQMARPNILGLRNNIYCMAQLLDNSDTAEPTKAGAGASQPPTPTPASDAFQRKLEGCRFLHGYHRFMHSVGRVFSKWGESPN
notes: also called hOSM with AGA modification; not shown: N-terminal FLAG tag left after thrombin removal of GST
B2: OSM-M1 (OSM with BC loop truncated from 12 to 7 amino acids) (ligand)
chain: AAIGSCSKEYRVLLGQLQKQTDLMQDTSRLLDPYIRIQGLDVPKLREHCRERPGAFPSEETLRGLGRRGFLQTLNATLGCVLHRLADLEQRLGAPSGLNIEDLEKLQMARPNILGLRNNIYCMAQLLDNSDTAEPTKAGAGASQPPTPTPASDAFQRKLEGCRFLHGYHRFMHSVGRVFSKWGESPN
notes: Made from the 'AGA' modified OSM template; lacks the thrombin site; not shown: N-terminal FLAG tag left after thrombin removal of GST
B3: human leukemia inhibitory factor (LIF) (ligand)
chain: not shown
notes: Purified recombinant protein; also called hLIF
B4: OSM-M2 (OSM with BC loop truncated from 12 to 4 amino acids) (ligand)
chain: AAIGSCSKEYRVLLGQLQKQTDLMQDTSRLLDPYIRIQGLDVPKLREHCRERPGAFPSEETLRGLGRRGFLQTLNATLGCVLHRLADLEQRLGGGNIEDLEKLQMARPNILGLRNNIYCMAQLLDNSDTAEPTKAGAGASQPPTPTPASDAFQRKLEGCRFLHGYHRFMHSVGRVFSKWGESPN
notes: as for B2

Each binder was assayed against T1, soluble gp130 (R&D Systems # …) (assay: SPR (SensiQ), cytokine immobilised, soluble gp130 as analyte, 1:1 model).
Method: Surface Plasmon Resonance (SPR): Kinetic parameters of the interactions between receptor domains and the cytokines LIF, OSM-WT, OSM-M1 or OSM-M2 were analyzed by SPR using the SENSIQ® system (ICX Technologies, Oklahoma City, Okla.) as described by the manufacturer protocol. Briefly, a carboxyl sensor with two channels was installed in SENSIQ® and allowed to thermally equilibrate for about 15 minutes. The channels were initially cleaned with a 3 minute injection of 0.1 M HCl. An activation solution of 2 mM 1-Ethyl-3-[3-dimethylaminopropyl]carbodiimide hydrochloride (EDC) and 0.5 mM N-hydroxysulfo succinimide (NHS) was prepared in deionized water immediately before injection. Activation solution was injected over both channels for approximately 3 minutes followed by a 10 minute injection of 50 μg/mL cytokine (LIF, OSM-WT, OSM-M1 or OSM-M2) in 10 mM acetate buffer, pH 5.0, over channel 1. […] Unreacted NHS esters were capped with a 3 minute injection of 1 M ethanolamine, pH 8.0, over both channels. […] A concentration series of soluble LIFR (# 249-LR-050/CF, R&D Systems, Minneapolis, Minn.), soluble OSMR (# 4389-OR-50, R&D Systems, Minneapolis, Minn.) or soluble gp130 (# 228-GP-050/CF, R&D Systems, Minneapolis, Minn.) in running buffer (10 mM HEPES pH 7.4, 150 mM NaCl, 3.4 mM EDTA, 0.005% Tween-20) were injected over both channels at a flow rate of 25 μl/min. Following a dissociation period of 3 minutes, the surfaces were regenerated by injecting 10 mM NaOH for 30 seconds. Rate constants for association (kₐ) and dissociation (kd) rates were derived by global analysis of the response curves fit to a 1:1 kinetic model (Equations 1 and 2) using QDat software (BioLogic Software, Ltd. Knoxville Tenn. and Nomadics, Inc. Stillwater, Okla.) using 1:1 stoichiometry.
Reducing the size of the BC loop improves OSM's affinity towards LIFR and OSMR. […] To directly measure the binding kinetics of these ligand-receptor interactions, surface plasmon resonance (SPR) was used.

Binder | Kd [nM] | koff [s⁻¹] | kon [M⁻¹ s⁻¹]
B1 | 22.7 | 0.0047 | 207000
B2 | 26.3 | 0.00534 | 203000
B3 | 72.4 | 0.00533 | 74000
B4 | 21.5 | 0.00487 | 227000

What follows are binders tested against LIFR:gp130 receptor complex on human retinal Müller cells (human, UniProt P42702 45-1097; P40189 23-918) (assay: cell-based or functional assay).
LIFR:gp130 receptor complex on human retinal Müller cells, sequence (P42702 45-1097, one chain of several): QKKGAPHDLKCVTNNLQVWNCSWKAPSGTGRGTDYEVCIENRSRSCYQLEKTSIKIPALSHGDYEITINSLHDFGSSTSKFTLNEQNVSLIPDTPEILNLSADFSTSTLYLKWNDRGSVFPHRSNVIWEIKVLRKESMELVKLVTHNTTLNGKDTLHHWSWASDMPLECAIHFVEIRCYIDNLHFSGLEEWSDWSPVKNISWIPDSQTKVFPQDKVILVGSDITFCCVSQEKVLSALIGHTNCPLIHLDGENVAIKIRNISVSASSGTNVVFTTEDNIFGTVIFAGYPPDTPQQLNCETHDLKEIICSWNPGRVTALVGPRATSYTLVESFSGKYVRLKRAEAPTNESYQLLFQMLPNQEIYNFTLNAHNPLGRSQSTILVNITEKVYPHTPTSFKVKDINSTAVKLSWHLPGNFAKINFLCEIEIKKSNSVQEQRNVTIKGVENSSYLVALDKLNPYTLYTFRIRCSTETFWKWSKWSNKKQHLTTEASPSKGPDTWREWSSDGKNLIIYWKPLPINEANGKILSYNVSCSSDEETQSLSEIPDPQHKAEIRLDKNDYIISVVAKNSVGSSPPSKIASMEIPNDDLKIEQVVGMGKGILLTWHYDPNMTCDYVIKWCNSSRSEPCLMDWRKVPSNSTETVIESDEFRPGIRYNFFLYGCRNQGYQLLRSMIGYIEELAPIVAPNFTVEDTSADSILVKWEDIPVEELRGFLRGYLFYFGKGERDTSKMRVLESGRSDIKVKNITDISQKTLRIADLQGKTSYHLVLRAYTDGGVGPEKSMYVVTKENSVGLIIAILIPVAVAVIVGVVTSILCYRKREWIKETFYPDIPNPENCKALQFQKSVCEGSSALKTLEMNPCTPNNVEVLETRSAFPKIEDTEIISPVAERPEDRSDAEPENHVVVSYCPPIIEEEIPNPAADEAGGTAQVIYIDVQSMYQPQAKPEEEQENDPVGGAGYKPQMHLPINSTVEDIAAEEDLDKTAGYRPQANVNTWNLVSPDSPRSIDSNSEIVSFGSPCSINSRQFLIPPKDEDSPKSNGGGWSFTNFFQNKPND

Binder | concentration needed for receptor activation, against native OSM [fold lower concentration]
B2 | 3
B4 | 3

Each binder was assayed against OSMR:gp130 receptor complex on A375 melanoma cells (UniProt Q99650 28-979; P40189 23-918, limits assumed) (assay: cell-based or functional assay).

Binder | concentration needed for receptor activation, against native OSM [fold lower concentration]
B2 | 3
B4 | 3
